Tested on: MS2 coat protein
Assay: apparent KD of MS2 coat protein; designed switch direction (-1 OFF switch, 1 ON switch): -1; higher = weaker reporter binding
In short: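 An oligonucleotide input, 200 uM small-molecule ligand, or no input was present during titration of SNAP-549-labelled MS2 coat protein, which was doubled from 0.7 or 1.5 nM to 3 µM. Designed RNA switches had been transcribed on Illumina chips by stalled E. coli RNA polymerase. Apparent KD per design is the median over clusters of curves fitted to normalised cluster fluorescence.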

[1] = Eterna round: R95, input ligand: FMN 200 uM
[2] = Eterna round: R95, input ligand: microRNA oligo, concentration not stated
[3] = Eterna round: R95, input ligand: none
[4] = input ligand: microRNA oligo, concentration not stated

Sequence: CUGUACUGAGGAUAUACAUGAGGAUCACCCAUGUGCUCCAGCUAGGAAACUAGCAAAAGUAGAAGGCAGUACAG [Mat - Exclusion 3 - Eli Mod - D60] (Eterna round: R97, puzzle: Exclusion 3)
- apparent KD of MS2 coat protein (input ligand: FMN 200 uM): 620 nM
- apparent KD of MS2 coat protein (input ligand: none): 62.5 nM

Sequence: UGGGUUCUCCAUGGAAGUAACAUGAGGAUCACCCAUGUAGGGCAAGUUUUUUGCUCGUCAUAGGCCGUGGGUUUGGA [JR_SV3TOV1_Sub019] (puzzle: Sensor v3, turn-off variant 1)
- apparent KD of MS2 coat protein [1]: 252 nM
- apparent KD of MS2 coat protein [2]: 248 nM
- apparent KD of MS2 coat protein [3]: 305 nM

Sequence: ACUAGGCGAGGAUAUACAUGCUUAACGCAGGAAAAGCUGCGACAUGAGGAUCACCCAUGUAGAAGGCGCAAAUA [Xege] (Eterna round: R96, puzzle: Exclusion 2)
- apparent KD of MS2 coat protein (input ligand: FMN 200 uM): 78.1 nM
- apparent KD of MS2 coat protein [4]: 14.6 nM
- apparent KD of MS2 coat protein (input ligand: none): 20 nM

Sequence: GUCAUGUUAGGAUAUCUGACAUGUGACUUCGGUCACUGUCCAGAGAAGGAACAUGAGGAUCACCCAUGUUGGAC [Ex4-3: 55] (puzzle: Exclusion 4)
- apparent KD of MS2 coat protein [2]: 43.2 nM

Sequence: CUCGUGUAAGGAUAUGUACCGACACCGCUAAAGCGGCUCCGACAGAAGGUACAUGAGGAUCACCCAUGUACUGC [EX4 B.2] (Eterna round: R97, puzzle: Exclusion 4)
- apparent KD of MS2 coat protein (input ligand: FMN 200 uM): 25.9 nM
- apparent KD of MS2 coat protein (input ligand: none): 20.3 nM

Sequence: CUAUUCCGAGGAUAUACAUGAGGAUCACCCAUGUCGGGCCUCUGCGUUUAGCGCGUAAGUAGAAGGUGGGUUUC [JL Riri mod 8] (puzzle: Exclusion 3)
- apparent KD of MS2 coat protein [2]: 27.1 nM

Sequence: GUAAACGAAGAGGAUAUUUGAUAUCAUAGCUUCAAAGAAGGCUUCACAUGAGGAUCACCCAUGUGAUCUUCAAG [Mat - Exclusion 6 - JL Mod - D21] (Eterna round: R97, puzzle: Exclusion 6)
- apparent KD of MS2 coat protein (input ligand: FMN 200 uM): 199 nM
- apparent KD of MS2 coat protein (input ligand: none): 34.8 nM

Sequence: GAAAAGGUAGGAUAUACGAAAAAAAAGGGUAGAAAAAAAACACAUGAGGAUCACCCAUGUAGAAGGGCCAAAAG [salish99_ex2_r3_032] (puzzle: Exclusion 2)
- apparent KD of MS2 coat protein [1]: 40.2 nM
- apparent KD of MS2 coat protein [2]: 34 nM
- apparent KD of MS2 coat protein [3]: 45.3 nM

Sequence: AUAAAGCAAGCAUGGUCCCACAUGAGGAUCACCCAUGUGUUCGUCUUAUAGGCUGCUGAGGCUUUUGCCUCGGUGGC [LRO Sensor-off var1-07 loose mod of D91 from Mat747] (Eterna round: R97, puzzle: Sensor, turn-off variant 1)
- apparent KD of MS2 coat protein (input ligand: FMN 200 uM): 155 nM
- apparent KD of MS2 coat protein (input ligand: none): 179 nM

Sequence: UUUUUAGUGCUUUUUAAGUACAUGAGGAUCACCCAUGUACUUGUCUGGUGGUCCGGACAAGCUUUUUGCUCGUCUAA [Sensor v3 - turn-off variant 1 - 1] (puzzle: Sensor v3, turn-off variant 1)
- apparent KD of MS2 coat protein [1]: 48.9 nM
- apparent KD of MS2 coat protein [2]: 33 nM
- apparent KD of MS2 coat protein [3]: 59.7 nM

Sequence: GCACGGAUUGUAGGAUAUCUGUGCGAUUAGCUCAGAGAAGGACACAUGAGGAUCACCCAUGUUACCUCAAUUGGCCUUCCGUGC [Eli exng1 - 031] (Eterna round: R96, puzzle: Exclusion NG 1)
- apparent KD of MS2 coat protein (input ligand: FMN 200 uM): 128 nM
- apparent KD of MS2 coat protein [4]: 70.7 nM
- apparent KD of MS2 coat protein (input ligand: none): 116 nM

Sequence: CUCAUGUGAGGAUAUGAGUUAGGGCGAGAGCCCUAUGAAAAUUAGAAGGCACAUGAGGAUCACCCAUGUGAGAA [Rerige] (Eterna round: R97, puzzle: Exclusion 4)
- apparent KD of MS2 coat protein (input ligand: FMN 200 uM): 211 nM
- apparent KD of MS2 coat protein (input ligand: none): 169 nM

Sequence: UUUUUAUAUGAAGGAUAUACUUAACAUGAGGAUCACCCAUGUGGUGUUGUGAGUGAGUGAGUUUAGUAGAAGGUCAAUUAUUUU [JMF's solution 6] (Eterna round: R96, puzzle: Exclusion NG 2)
- apparent KD of MS2 coat protein (input ligand: FMN 200 uM): 915 nM
- apparent KD of MS2 coat protein [4]: 246 nM
- apparent KD of MS2 coat protein (input ligand: none): 261 nM

Sequence: AUCGUGCAGCAAAGCUGUACGAGUACAUGAGGAUCACCCAUGUAGGAUAUGGUACGCAAAGCGUGCUAGAAGGAUAUGAGAUUA [Mat - Exclusion NG 3 - Mod of JL - D97] (Eterna round: R96, puzzle: Exclusion NG 3)
- apparent KD of MS2 coat protein (input ligand: FMN 200 uM): 38.1 nM
- apparent KD of MS2 coat protein [4]: 32.6 nM
- apparent KD of MS2 coat protein (input ligand: none): 57.7 nM

Sequence: UUUUAACAUGAGGAUCACCCAUGUGAGGAUAUCGAAAUUUAUAUUAAUAUUAUUUUUUCGAGAAGGCACAUUUU [JMF 49] (puzzle: Exclusion 1)
- apparent KD of MS2 coat protein [2]: 148 nM

Sequence: CUUGUGUAAGGAUAUGCCUGGCCGUGAGGCCAGAUUGAAUAGCAGAAGGUACAUGAGGAUCACCCAUGUACGGG [jl-ex4-4.60 ViennaUCT mod] (Eterna round: R97, puzzle: Exclusion 4)
- apparent KD of MS2 coat protein (input ligand: FMN 200 uM): 256 nM
- apparent KD of MS2 coat protein (input ligand: none): 376 nM

Sequence: GGUUAGGCAGGAUAUACCCACAGUGUCUGUAGAAUCGCAAGACAUGAGGAUCACCCAUGUAGAAGGGCCGACCG [Eternabot (L1) Solution 1] (Eterna round: R97, puzzle: Exclusion 2)
- apparent KD of MS2 coat protein (input ligand: FMN 200 uM): 184 nM
- apparent KD of MS2 coat protein (input ligand: none): 273 nM

Sequence: GCAGAAUGAGUUAGGAUAUGAUGAUUUUUUUUAUAUCAGAAGGAACUUGAGGAUCACCCAAGUUAAGAUAGGGU [JR_BMEx4_Sub067] (Eterna round: R97, puzzle: Brourd's mod of Exclusion 4)
- apparent KD of MS2 coat protein (input ligand: FMN 200 uM): 89.2 nM
- apparent KD of MS2 coat protein (input ligand: none): 138 nM

Sequence: AAGUAACAUGAGGAUCACCCAUGUUAGGAUAUCUCGGCCACAGGAACGCUGUAAAGCCAGAGAAGGAGCGGGUG [Mabi] (Eterna round: R97, puzzle: Exclusion 1)
- apparent KD of MS2 coat protein (input ligand: FMN 200 uM): 156 nM
- apparent KD of MS2 coat protein (input ligand: none): 127 nM

Sequence: GGAUCACAUGUCAGGAUAUGCAGGUCCUUGGAUCUGCAGAAGGGACAUGAGGAUCACCCAUGUCAUGAAGAUCC [Mat - Exclusion 4 - Eli Mod - D51] (Eterna round: R97, puzzle: Brourd's mod of Exclusion 4)
- apparent KD of MS2 coat protein (input ligand: FMN 200 uM): 945 nM
- apparent KD of MS2 coat protein (input ligand: none): 145 nM

Sequence: AAUAACAAUGUGAGGAUAUCUAGAGCCUCGGCUCUAGAGAAGGCACAUGAGGAUCACCCAUGUCUCAAUAACAA [BmEx4/2-E7] (Eterna round: R97, puzzle: Brourd's mod of Exclusion 4)
- apparent KD of MS2 coat protein (input ligand: FMN 200 uM): 502 nM
- apparent KD of MS2 coat protein (input ligand: none): 52.7 nM

Sequence: AUUGUUUAUGUAGGAUAUGCCUGGCGUGCCUUUGCAGAAGGACAUGAGGAUCACCCAUGUAUUGCGGUCUGCGUUCAGAUCGCA [salish99_ExNG1_r4_032] (Eterna round: R96, puzzle: Exclusion NG 1)
- apparent KD of MS2 coat protein [4]: 25 nM

Sequence: AUUAUGUUAGGAUAUGCUUAUGGUGGAUAGUCCAGUAUGGUGCAGAAGGGACAUGAGGAUCACCCAUGUGCUGA [EX4 #32] (Eterna round: R97, puzzle: Exclusion 4)
- apparent KD of MS2 coat protein (input ligand: FMN 200 uM): 50.9 nM
- apparent KD of MS2 coat protein (input ligand: none): 52.8 nM

Sequence: UCUGGUCGGAAGGAUAUGGUCGGGUCAAAUCGGCCAGAAGGUCUGACAUGAGGAUCACCCAUGUGAGUCCAAAG [Esceus] (puzzle: Exclusion 6)
- apparent KD of MS2 coat protein [1]: 51.7 nM
- apparent KD of MS2 coat protein [2]: 21.6 nM
- apparent KD of MS2 coat protein [3]: 20.8 nM

Sequence: CCUCUACAUGAGGAUCACCCAUGUGAGGAUAUAGACCGGCCUAACGCGGGCUCGGGAGCUAGAAGGCACAUAGA [EX1 C.7] (Eterna round: R97, puzzle: Exclusion 1)
- apparent KD of MS2 coat protein (input ligand: FMN 200 uM): 70.8 nM
- apparent KD of MS2 coat protein (input ligand: none): 21.8 nM

Sequence: UUUAUAAUUUCAAUCUUCGCCAACAAACUUACGCUGGCCACAUGAGGAUCACCCAUGUUUUUUGUUCGUUUUAUUCU [Veorenxere] (Eterna round: R96, puzzle: Sensor v3, turn-off variant 2)
- apparent KD of MS2 coat protein (input ligand: FMN 200 uM): 25 nM
- apparent KD of MS2 coat protein [4]: 62.2 nM
- apparent KD of MS2 coat protein (input ligand: none): 27.1 nM

Sequence: CAAAGUUGGUAAGGAUAUCCCACAUUAUUCUGACCCGUGCAAGCUACAUGAGGAUCACCCAUGUGGGAGAAGGUGCGUUAAAGA [Design 1] (Eterna round: R96, puzzle: Exclusion NG 2)
- apparent KD of MS2 coat protein (input ligand: FMN 200 uM): 93.4 nM
- apparent KD of MS2 coat protein [4]: 52 nM
- apparent KD of MS2 coat protein (input ligand: none): 94.3 nM

Sequence: UCCGUUUGAGGAUAUAUGUAGACAAACAUGAGGAUCACCCAUGUCGGGAUCGAAAUGUCCGUAGAAGGCAAACUGG [Eternabot (L2) Solution 13] (Eterna round: R97, puzzle: Exclusion 5)
- apparent KD of MS2 coat protein (input ligand: FMN 200 uM): 65.2 nM
- apparent KD of MS2 coat protein (input ligand: none): 22.9 nM

Sequence: CUUUCGUCUGUGGGUGGUGACAUGAGGAUCACCCAUGUUUUGCUCGUCUUGUCCCGGGCCCGGCGCCCGGGCCCGGG [-38.7, -62.5, A 8%] (Eterna round: R97, puzzle: Sensor, turn-off variant 1)
- apparent KD of MS2 coat protein (input ligand: FMN 200 uM): 1210 nM
- apparent KD of MS2 coat protein (input ligand: none): 1340 nM

Sequence: CCCGAGUUAGGAUAUAAACCAAAGUAACCAGCAGCUUAGCUUUAGAAGGAACAUGAGGAUCACCCAUGUGGUCU [Eternabot (L2) Solution 70] (Eterna round: R97, puzzle: Exclusion 4)
- apparent KD of MS2 coat protein (input ligand: FMN 200 uM): 119 nM
- apparent KD of MS2 coat protein (input ligand: none): 107 nM

Sequence: GCAUGAAUGUAGGAUAUCUGUAGGGCCCGGACCAGAGAAGGACGCACAUGAGGAUCACCCAUGUCUUGAUGAUC [Eternabot (L1) Solution 15] (Eterna round: R97, puzzle: Exclusion 6)
- apparent KD of MS2 coat protein (input ligand: FMN 200 uM): 540 nM
- apparent KD of MS2 coat protein (input ligand: none): 239 nM

Sequence: AGUACUAACACGUCAGUGUUAGUACAAUAAGCUUGUGAAACAUGAGGAUCACCCAUGUCCUCAUAAGCUCGUCUUAU [salish99_TOv2_r3_062] (puzzle: Sensor v3, turn-off variant 2)
- apparent KD of MS2 coat protein [1]: 17.3 nM
- apparent KD of MS2 coat protein [2]: 602 nM
- apparent KD of MS2 coat protein [3]: 16.1 nM

Sequence: GCUCGUGGGCAAGGAUAUCCUACGCUGUUCUGGUUCGUGUCUGUCACAUGAGGAUCACCCAUGUGGGAGAAGGUGCACCAGGGU [Design 51] (Eterna round: R96, puzzle: Exclusion NG 2)
- apparent KD of MS2 coat protein (input ligand: FMN 200 uM): 10.8 nM
- apparent KD of MS2 coat protein [4]: 9.67 nM
- apparent KD of MS2 coat protein (input ligand: none): 14 nM

Sequence: GCAGGUCAAGGAUAUACAUGAGGAUCACCCAUGUAGAUCAACCAGCGAUAGCUGGAAUGUAGAAGGUGACCUGC [E3/5-C2] (Eterna round: R97, puzzle: Exclusion 3)
- apparent KD of MS2 coat protein (input ligand: FMN 200 uM): 67.6 nM
- apparent KD of MS2 coat protein (input ligand: none): 23.7 nM
